Key:
[1] = 125I-TRAIL biodistribution in tumor-bearing mice; assay type: in vivo
Description: Radioiodination of TRAIL was performed with a TRAIL solution of 1 mg/ml in a pH 7.4 TRIS buffer, containing 100 μM zinc sulphate and 10% glycerol. 45 μg TRAIL and 50 μg chloramine T (Merck, Amsterdam, The Netherlands) were allowed to react with 70 MBq ^125I-NaI in 0.05 M NaOH (pH 9.0, GE Healthcare, Eindhoven, The Netherlands) during 3 min at pH 8.0. The labeling reaction was terminated with sodium metabisulfite (Acros Organics, Geel, Belgium). Non-bound ^1251 was removed by gel filtration chromatography. The PD-10 column (Sephadex™ G-25M, Amersham Biosciences AB, Uppsala, Sweden) was eluted with TRIS buffer, containing 100 μM zinc sulphate, 10% glycerol and 0.5% human serum albumin. Nude mice with IP A2780-Luc xenografts were prepared, as described above.
The in vivo biodistribution study was conducted in 50 mice after establishment of A2780-Luc IP xenografts. ^125I-TRAIL (0.15 ml; 150 kBq, 0.5 μg) was administered IV through retro-orbital injection in 25 mice, and IP in 25 mice. At five time points after injection (t=15, 30, 60, 90 and 360 min) groups of 5 mice were sacrificed and organs and tissues were excised, rinsed for residual blood and weighed. Tumor tissue was additionally fixed in 10% buffered formalin for histological assessment. Samples were counted for radioactivity in a calibrated well-type LKB-1282-CompuGamma counter. Tissue activity was expressed as percentage of the injected dose/g tissue (% ID/g). Tumor-to- blood and tumor-to-muscle ratios were also calculated. All data were corrected for physical decay and compared with a known standard sample. Pharmacokinetic parameters were derived using the KINFIT module of the MW/PHARM computer program package (version 3.50, MediWare, Groningen, The Netherlands). Clearance rates of ^125I-TRAIL from the circulation were calculated using non-linear regression analysis.

[2] = tested on: TRAIL R1, R2, R3 and R4; assay: TRAIL receptor membrane expression by flow cytometry; assay type: cell-based
Description: Analysis of TRAIL-receptor membrane expression was performed by FACS analysis as described previously^35. For death receptor expression after cisplatin exposure, cells were exposed for 4 h, washed with PBS and incubated for 20 h in regular culture medium, after which FACS analysis was performed. Cells were subsequently washed twice with cold PBS containing 2% FCS and 0.1% sodium azide and incubated with phycoerythrin (PE)-conjugated mouse monoclonal antibodies against DR4, DR5, DcR1 and DcR2. Mouse PE-labeled IgG1 and IgG2B were used as isotype controls. All PE-labeled antibodies were purchased from R&D systems (Oxon, UK). Membrane receptor expression was analyzed with Winlist and Winlist 32 software (Verity Software House, Inc., Topsham, Me.) and is shown as mean fluorescent intensity (MFI) of all analyzed cells.
In order to determine the cell surface expression of each of the TRAIL receptors on A2780 carcinoma cells, cells were washed twice in PBS containing 1% BSA and then incubated with monoclonal antibodies to DR4, DR5, DcR1 or DcR2 (Alexis) for 40 min. After two wash steps with PBS/BSA, anti-mouse IgG-FITC (Sigma) secondary antibody was added for 30 min. All incubations were carried out on ice. Negative controls contained isotype control antibody. Cells were analyzed by a FacsCalibur flow cytometer.

[3] = tested on: p53; assay: p53 protein expression in cervical cancer cell lines; assay type: cell-based
Description: All three cervical cancer cell lines were treated with increasing concentration of Bortezomib to assess expression of p53 protein.

[4] = tested on: Colo205 tumors; assay: Colo205 tumors in athymic nude mice; assay type: in vivo; conditions: 40 and 200 mg/kg, 2×5 days
[5] = tested on: A2780 cells; assay: Microculture tetrazolium cytotoxicity assay in A2780; assay type: cell-based, human; conditions: A2780, 4 h pre-incubation; read-out: inhibitory concentration 20% (IC20)
Description: The microculture tetrazolium assay, performed as described earlier^36, was used to measure cytotoxicity. […] In cell viability assays assessing combination treatment with cisplatin, the cells were pre-incubated for 4 h (h) with 2.5 μM cisplatin (inhibitory concentration 20%-IC20), before addition of 0-25 ng/ml TRAIL or TRAIL-DR5.

[6] = tested on: A2780-Luc xenografts; assay: IP A2780-Luc xenografts, bioluminescence imaging
Description: Visualization of response to TRAIL, TRAIL-DR5, cisplatin and to the combination of either ligand with cisplatin by means of bioluminescence imaging. Nude mice were inoculated IP with 2×10^6 A2780-Luc cells. After 5 days treatment was initiated; cisplatin (4 mg/kg IP) or vehicle at day 5 and 12, TRAIL, TRAIL-DR5 (5 mg/kg IP) or vehicle at day 5-10 and 12-16, or a combination of TRAIL or TRAIL-DR5 with cisplatin.
Female nude mice (Hsd:Athymic Nude-nu) were obtained from Harlan Nederland (Horst, The Netherlands) at 6-8 weeks of age (˜21 g). Inoculation was performed after 10 days of acclimatization.
Imaging was conducted with the IVIS 100 series (Xenogen Corporation Alameda, Calif.), composed of a cooled charge-coupled device camera connected to a light tight black chamber. Before in vivo imaging animals were anesthetized with 4% isoflurane and injected IP with D-luciferin (150 mg/kg, Xenogen) reconstituted in sterile PBS. Mice were placed in prone position on a warmed stage (37° C.) in the imaging chamber, and grayscale reference images were obtained under dim illumination. Pseudocolor images representing bioluminescent intensity were acquired with Livinglmage software (version 2.50, Xenogen) 10 and 15 min after D-luciferin injection in complete darkness. These images were superimposed on the grayscale images for analysis with Igor Pro software (version 4.09, WaveMetrics, Lake Oswego, Oreg.). All bioluminescence imaging (BLI) data are depicted in radiance units (photons/sec/cm^2/sr) enabling absolute comparisons between bioluminescent images and represent final data obtained after subtraction of the background signal.

[7] = Colo205, 5 mM Aspirin or 10 μM 5-Flurouracil, 24 h
[8] = Lovo, 2.5 mM Aspirin or 10 μM 5-Flurouracil, 24 h
[9] = SW948, 2.5 mM Aspirin or 10 μM 5-Flurouracil, 24 h

## 125I-TRAIL: radioiodinated TRAIL
[1]; 15 min after injection
  cleaved caspase-3 staining in tumor tissue: almost no cleaved caspase-3 was detected
[1]; 360 min after injection
  cleaved caspase-3 staining in tumor tissue: increased cleaved caspase-3 staining
[1]; IP, 15 min
  blood activity: 25.30±5.04 % ID/g
  kidney uptake: 19.83±1.38 % ID/g
  tumor activity: 11.31±1.51
  tumor to blood ratio: 0.48±0.03
[1]; IP, 30 min
  blood activity: 15.33±3.78 % ID/g
  kidney uptake: 21.45±1.90 % ID/g
[1]; IP, 60 min
  tumor activity: 12.91±3.29
  tumor to blood ratio: 0.55±0.06
[1]; IP, 90 min
  blood activity: 23.74±6.85 % ID/g
  kidney uptake: 17.87±1.28 % ID/g
[1]; IP, 360 min
  blood activity: 8.26±1.74 % ID/g
  kidney uptake: 4.45±0.31 % ID/g
[1]; IV, 15 min
  blood activity: 43.29±11.04 % ID/g
  kidney uptake: 199.2±40.69 % ID/g
  tumor to blood ratio: 0.13±0.02
[1]; IV, 30 min
  blood activity: 30.51±12.40 % ID/g
  kidney uptake: 126.6±49.68 % ID/g
[1]; IV, 60 min
  tumor to blood ratio: 0.38±0.04
[1]; IV, 60 min (maximum)
  tumor activity: 6.85±1.29
[1]; IV, 90 min
  blood activity: 7.52±1.22 % ID/g
  kidney uptake: 12.73±2.47 % ID/g
[1]; IV, 360 min
  blood activity: 2.63±0.56 % ID/g
  kidney uptake: 2.06±0.56 % ID/g

## O=c1[nH]cc(F)c(=O)[nH]1 [5-Flurouracil]
[2]; [7]
  TRAIL receptor expression: induction of all TRAIL receptors
[2]; [8]
  TRAIL receptor expression: induction of TRAIL R2, R3 and R4 receptors
[2]; [9]
  TRAIL receptor expression: did not lead to any induction of the TRAIL receptors

## CC(C)C[C@H](NC(=O)[C@H](Cc1ccccc1)NC(=O)c1cnccn1)B(O)O [Bortezomib]
[2]; Caski, 5 nM, 24 h
  TRAIL receptor expression: increased receptor expression of TRAIL R2 and slight increase of TRAIL R3
[2]; Hela, 10 nM, 24 h
  TRAIL receptor expression: increases receptor expression of all TRAIL receptors
[2]; SIHA, 10 nM, 24 h
  TRAIL receptor expression: increases receptor expression of all TRAIL receptors
[3]; Caski
  induction of p53 protein: can be seen at concentrations of 1 nM with largest induction seen at 5 and 10 nM
[3]; HELA
  induction of p53 protein: seen also at 5 and 10 nM, though relatively smaller
[3]; SiHa
  induction of p53 protein: can be seen at 5 and 10 nM

## CC(=O)Oc1ccccc1C(=O)O [aspirin]
[2]; [7]
  TRAIL receptor expression: induction TRAIL R2, R3 and R4 receptor expression
[2]; [8]
  TRAIL receptor expression: induction TRAIL R4 and to a lesser extent TRAIL R2 receptor expression
[2]; [9]
  TRAIL receptor expression: induction TRAIL-R2 expression only
[4]
  effect on tumor growth, aspirin alone: no difference in effect
  side effects: no side effects were found

## N.N.[Cl][Pt][Cl] [cisplatin, cis-diamminedichloroplatinum (II), reference compound]
[5]
  IC20: 2500 nM
[2]; A2780
  TRAIL receptor expression: dose dependent upregulation of DR5 and DcR2 expression
[6]; day 16, IP treatment
  mean signal reduction as to vehicle treated mice: 72.3%
[6]; day 16, mean±SEM
  light emission (bioluminescent signal): 1.3×10^8±2.4×10^7 radiance units
[6]; surrogate endpoint signal ≧3.1×10^8
  median survival: 28 days
